Tested on: CCCCCC(=O)NC1CCOC1=O
Experiment: purified protein
Conditions: pH 8.0, 50 mM Tris-Cl, 35°C (methods: 30°C, 2 h for saturation curve), no added metal

Q: Which Km does the source give for AdeH (Lysinibacillus sp. Gs50) here?
A: 3.089 µM

— article PMC5135098, “Attenuation of Quorum Sensing Regulated Virulence of Pectobacterium carotovorum subsp. carotovorum through an AHL Lactonase Produced by Lysinibacillus sp. Gs50” (PLoS ONE, 2016)
